Laboratory results taken from patent US20250042992A1 (University of California, published 2025).
One block for each molecule: values may come before it.

Experiments:
[1] = molecular target: human-mouse chimeric DLK1 HM1-mGFP on HEK293T cells (region 1 of human DLK1 long form replaced with mouse); test: direct flow cytometry, control antibody at 20ug/ml, cells 834 HEK293T DLK1HM1-mGFP; no ab 1,385.00; same antibody on HEK293T parental 4,432.00
[2] = molecular target: human-mouse chimeric DLK1 HM2-mGFP on HEK293T cells (region 2 of human DLK1 long form replaced with mouse); test: direct flow cytometry, control antibody at 20ug/ml, cells 835 HEK293T DLK1HM2-mGFP; no ab 1,251.00; same antibody on HEK293T parental 4,432.00
[3] = molecular target: human-mouse chimeric DLK1 HM3-mGFP on HEK293T cells (region 3 of human DLK1 long form replaced with mouse); test: direct flow cytometry, control antibody at 20ug/ml, cells 836 HEK293T DLK1HM3-mGFP; no ab 1,657.50; same antibody on HEK293T parental 4,432.00
[4] = molecular target: human-mouse chimeric DLK1 HM4-mGFP on HEK293T cells (region 4 of human DLK1 long form replaced with mouse); test: direct flow cytometry, control antibody at 20ug/ml, cells 837 HEK293T DLK1HM4-mGFP; no ab 1,516.00; same antibody on HEK293T parental 4,432.00
[5] = molecular target: human-mouse chimeric DLK1 HM7-mGFP on HEK293T cells (region 7 of human DLK1 long form replaced with mouse); test: direct flow cytometry, control antibody at 20ug/ml, cells 848 HEK293T DLK1 HM7-mGFP; no ab 1,583.50; same antibody on HEK293T parental 4,432.00
[6] = molecular target: human-mouse chimeric DLK1 HM8-mGFP on HEK293T cells (region 8 of human DLK1 long form replaced with mouse); test: direct flow cytometry, control antibody at 20ug/ml, cells 849 HEK293T DLK1 HM8-mGFP; no ab 1,653.50; same antibody on HEK293T parental 4,432.00
Sequence of human-mouse chimeric DLK1 HM8-mGFP on HEK293T cells (region 8 of human DLK1 long form replaced with mouse) (chain, as listed by the source mutant limits assumed, form in doubt): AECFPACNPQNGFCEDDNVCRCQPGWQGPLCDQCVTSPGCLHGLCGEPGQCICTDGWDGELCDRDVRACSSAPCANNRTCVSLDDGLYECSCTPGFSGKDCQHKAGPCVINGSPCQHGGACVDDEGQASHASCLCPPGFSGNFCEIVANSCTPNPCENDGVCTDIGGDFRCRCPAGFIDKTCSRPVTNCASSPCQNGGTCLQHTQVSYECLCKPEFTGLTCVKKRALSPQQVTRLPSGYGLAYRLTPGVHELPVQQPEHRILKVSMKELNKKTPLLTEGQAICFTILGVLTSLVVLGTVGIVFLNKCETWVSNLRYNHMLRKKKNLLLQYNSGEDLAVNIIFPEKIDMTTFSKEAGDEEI

[7] = molecular target: human-mouse chimeric DLK1 HM5-mGFP on HEK293T cells (region 5 of human DLK1 long form replaced with mouse); test: direct flow cytometry, control antibody at 20ug/ml, cells 850 HEK293T DLK1 HM5-mGFP; no ab 1,807.00; same antibody on HEK293T parental 4,432.00
Sequence of human-mouse chimeric DLK1 HM5-mGFP on HEK293T cells (region 5 of human DLK1 long form replaced with mouse) (chain, as listed by the source mutant limits assumed, form in doubt): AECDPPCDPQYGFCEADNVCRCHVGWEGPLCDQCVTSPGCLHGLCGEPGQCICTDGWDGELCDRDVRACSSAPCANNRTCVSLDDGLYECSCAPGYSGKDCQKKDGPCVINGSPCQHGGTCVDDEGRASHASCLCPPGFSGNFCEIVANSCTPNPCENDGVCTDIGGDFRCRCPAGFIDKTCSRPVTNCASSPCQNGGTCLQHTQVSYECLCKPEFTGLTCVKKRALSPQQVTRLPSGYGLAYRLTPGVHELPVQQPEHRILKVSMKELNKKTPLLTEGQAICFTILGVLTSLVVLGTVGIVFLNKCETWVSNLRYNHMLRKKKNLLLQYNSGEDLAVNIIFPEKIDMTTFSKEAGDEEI

[8] = molecular target: human-mouse chimeric DLK1 HM6-mGFP on HEK293T cells (region 6 of human DLK1 long form replaced with mouse); test: direct flow cytometry, control antibody at 20ug/ml, cells 851 HEK293T DLK1 HM6-mGFP; no ab 1,992.00; same antibody on HEK293T parental 4,432.00
[9] = molecular target: human DLK1 long form (isoform 1, DLK1-FL) fused to mGFP, overexpressed on HEK293T cells (human) (UniProt P80370); test: direct flow cytometry, control antibody at 20ug/ml, cells HEK293T DLK1 mGFP G06 (long form); no ab 1,649.00; same antibody on HEK293T parental 4,432.00
Sequence of human DLK1 long form (isoform 1, DLK1-FL) fused to mGFP, overexpressed on HEK293T cells (human) (P80370 24-383): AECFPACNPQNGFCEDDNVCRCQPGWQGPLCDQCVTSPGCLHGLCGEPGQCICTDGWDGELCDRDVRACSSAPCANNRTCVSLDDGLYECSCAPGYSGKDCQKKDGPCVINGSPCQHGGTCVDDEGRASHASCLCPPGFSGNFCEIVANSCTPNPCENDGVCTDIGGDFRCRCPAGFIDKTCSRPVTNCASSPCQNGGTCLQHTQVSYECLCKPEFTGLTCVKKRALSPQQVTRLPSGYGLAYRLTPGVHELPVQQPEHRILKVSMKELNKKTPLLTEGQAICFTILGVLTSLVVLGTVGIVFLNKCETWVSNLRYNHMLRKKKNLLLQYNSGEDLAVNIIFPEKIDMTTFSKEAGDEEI

[10] = molecular target: human DLK1 long form (isoform 1, DLK1-FL) fused to mGFP, overexpressed on HEK293T cells (human) (UniProt P80370); test: direct flow cytometry, AF647-labelled control antibody at 20ug/ml, cells HEK293T DLK1 mGFP G06 (long form); same antibody on HEK293T parental 21,331.00
[11] = molecular target: human DLK1 short form (isoform 2, DLK1-MB) fused to mGFP, expressed on HEK293T cells (human) (UniProt P80370); test: direct flow cytometry, AF647-labelled control antibody at 20ug/ml, cells 832-HEK293T DLK1 Iso2-mGFP mass pop (short form); same antibody on HEK293T parental 21,331.00
Sequence of human DLK1 short form (isoform 2, DLK1-MB) fused to mGFP, expressed on HEK293T cells (human) (P80370 other isoform, or with tags, fused parts or gaps): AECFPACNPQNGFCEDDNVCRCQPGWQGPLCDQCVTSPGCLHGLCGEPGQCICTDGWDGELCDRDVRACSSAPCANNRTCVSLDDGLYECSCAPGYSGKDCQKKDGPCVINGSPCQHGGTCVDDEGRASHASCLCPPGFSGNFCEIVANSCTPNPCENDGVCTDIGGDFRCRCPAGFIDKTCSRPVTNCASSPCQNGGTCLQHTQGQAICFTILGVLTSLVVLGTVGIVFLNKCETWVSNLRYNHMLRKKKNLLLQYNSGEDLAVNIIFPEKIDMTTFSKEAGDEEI

[12] = molecular target: human DLK1 long form (isoform 1, DLK1-FL) fused to mGFP, overexpressed on HEK293T cells (human) (UniProt P80370); test: indirect flow cytometry, 1° control antibody at 4ug/ml detected with an AF-647 secondary antibody, cells HEK293T DLK1 mGFP G06 (long form); same antibody on HEK293T parental 3,130.00
[13] = molecular target: human DLK1 short form (isoform 2, DLK1-MB) fused to mGFP, expressed on HEK293T cells (human) (UniProt P80370); test: indirect flow cytometry, 1° control antibody at 4ug/ml detected with an AF-647 secondary antibody, cells 832-HEK293T DLK1 Iso2-mGFP mass pop (short form); same antibody on HEK293T parental 3,130.00
[14] = molecular target: human DLK1 endogenously expressed on COR-L279 small cell lung carcinoma cells (human) (UniProt P80370); test: flow cytometry, ADC at 20µg/ml, row CORL-279 (SCLC, DLK+); row M202 of the same block: 4,385.0
[15] = molecular target: human DLK1 endogenously expressed on COR-L279 small cell lung carcinoma cells (human) (UniProt P80370); test: flow cytometry, (His)6-tagged scFv detected with AF647-anti-His tag 2° Ab, CORL279 (DLK1+) cells; same scFv on M202 (DLK1-) 9,460.00; 2° Ab only on CORL279 63,034.00; no ab 4,394.00
[16] = molecular target: DLK1 ECD-mFc long form (human DLK1-FL, isoform 1) (human) (UniProt P80370); test: ELISA, plate coated with DLK1 ECD-mFc long form, anti-human IgG Fc-HRP detection
Sequence of DLK1 ECD-mFc long form (human DLK1-FL, isoform 1) (human) (P80370 24-303): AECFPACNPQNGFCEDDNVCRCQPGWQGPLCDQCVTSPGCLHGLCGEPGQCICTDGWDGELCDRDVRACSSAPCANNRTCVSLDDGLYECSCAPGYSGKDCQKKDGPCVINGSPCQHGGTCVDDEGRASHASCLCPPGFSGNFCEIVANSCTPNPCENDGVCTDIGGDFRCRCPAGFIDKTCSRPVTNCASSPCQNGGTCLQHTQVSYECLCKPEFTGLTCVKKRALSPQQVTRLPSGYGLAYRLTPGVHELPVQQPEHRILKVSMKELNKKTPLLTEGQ

[17] = molecular target: DLK1 ECD-mFc long form (human DLK1-FL, isoform 1) (human) (UniProt P80370); test: ELISA, plate coated with long form of DLK1 ECD-mFc (isoform 1), anti-human IgG Fc-HRP, OD450nm
[18] = molecular target: human DLK1 long form (isoform 1, DLK1-FL) fused to mGFP, overexpressed on HEK293T cells (human) (UniProt P80370); test: direct flow cytometry, AF647-labelled antibody at 20ug/ml, cells HEK293T DLK1 mGFP G06 (long form); same antibody on HEK293T parental 17,562.00
[19] = molecular target: human DLK1 long form (isoform 1, DLK1-FL) fused to mGFP, overexpressed on HEK293T cells (human) (UniProt P80370); test: indirect flow cytometry, 1° antibody at 4ug/ml detected with an AF-647 secondary antibody, cells HEK293T DLK1 mGFP G06 (long form); same antibody on HEK293T parental 2,827.00
[20] = molecular target: human DLK1 short form (isoform 2, DLK1-MB) fused to mGFP, expressed on HEK293T cells (human) (UniProt P80370); test: direct flow cytometry, AF647-labelled antibody at 20ug/ml, cells 832-HEK293T DLK1 Iso2-mGFP mass pop (short form); same antibody on HEK293T parental 17,562.00; hIgG1-AF647 on the same cells 29,714.00
[21] = molecular target: human DLK1 short form (isoform 2, DLK1-MB) fused to mGFP, expressed on HEK293T cells (human) (UniProt P80370); test: indirect flow cytometry, 1° antibody at 4ug/ml detected with an AF-647 secondary antibody, cells 832-HEK293T DLK1 Iso2-mGFP mass pop (short form); same antibody on HEK293T parental 2,827.00; hIgG1 on the same cells 2,895.00
[22] = molecular target: human DLK1 endogenously expressed on COR-L279 small cell lung carcinoma cells (human) (UniProt P80370); test: flow cytometry, (His)6-tagged scFv detected with AF647-anti-His tag 2° Ab, CORL279 (DLK1+) cells; same scFv on M202 (DLK1-) 8,072.00; 2° Ab only on CORL279 63,034.00; no ab 4,394.00
[23] = molecular target: human DLK1 endogenously expressed on COR-L279 small cell lung carcinoma cells (human) (UniProt P80370); test: flow cytometry, (His)6-tagged scFv detected with AF647-anti-His tag 2° Ab, CORL279 (DLK1+) cells; same scFv on M202 (DLK1-) 11,680.00; 2° Ab only on CORL279 63,034.00; no ab 4,394.00

FL4H/AF-647 signal [1]: 8760
FL4H/AF-647 signal [2]: 8510
FL4H/AF-647 signal [3]: 8770
FL4H/AF-647 signal [4]: 8480
FL4H/AF-647 signal [5]: 5270
FL4H/AF-647 signal [6]: 4360
FL4H/AF-647 signal [7]: 7660
FL4H/AF-647 signal [8]: 6460
FL4H/AF-647 signal [9]: 9870
FL4H/AF-647 signal [10]: 47900
FL4H/AF-647 signal [11]: 29700
FL4H/AF-647 signal [12]: 4120
FL4H/AF-647 signal [13]: 2900
Molecule: non-targeting human IgG1 negative control antibody

ADC Binding Activity by Flow Cytometry (20µg/ml) [14]: 225000
B1: 04-0547-h2-MMAE-AF647 (04-0547-h2 antibody conjugated to both MMAE and Alexa Fluor 647) (antibody, IgG1, V domains shown)
VH: EVQLVESGGGLVQPGGSLRLSCAASGFSISDYYMAWVRQAPGKGLEWVANINYDGTNTYYADSVKGRFTISRDNSKNTLYLQMNSLRAEDTAVYYCVRSYYYYGMEYWGQGTTVTVSS
VL: DIQMTQSPSSLSASVGDRVTITCRASHDVSTAVAWYQQKPGKAPKLLIYSASYRYTGVPSRFSGSGSGTDFTLTISSLQPEDFATYYCQQHYRIPLTFGQGTKLEIK
modifications: MC-VC-PAB-MMAE on free thiols of cysteines (see heavy chain); MC-VC-PAB-MMAE on free thiols of cysteines (about 90% at reduced interchain disulfides, average 4 MMAE per antibody); Alexa Fluor 647 label

average AF-647 fluorescence (FL4-H) [15]: 763000
B2: 04-0547-h2scfv, single chain Fv of 04-0547-h2 DLK1 antibody, with C-terminal (His)6 tag (scFv)
scFv: DIQMTQSPSSLSASVGDRVTITCRASHDVSTAVAWYQQKPGKAPKLLIYSASYRYTGVPSRFSGSGSGTDFTLTISSLQPEDFATYYCQQHYRIPLTFGQGTKLEIKGGGGSGGGGSGGGGSEVQLVESGGGLVQPGGSLRLSCAASGFSISDYYMAWVRQAPGKGLEWVANINYDGTNTYYADSVKGRFTISRDNSKNTLYLQMNSLRAEDTAVYYCVRSYYYYGMEYWGQGTTVTVSSHHHHHH

EC50 [16]: 17.9 nM
EC50 [17]: 17.9 nM
FL4H/AF-647 signal [18]: 153000
FL4H/AF-647 signal [19]: 20400
FL4H/AF-647 signal [20]: 43500
FL4H/AF-647 signal [21]: 3350
B3: LegoChem 18A5 benchmark anti-DLK1 antibody (antibody, from another filing, V domains shown)
VH: QVQLVQSGGAVVQPGHSLRLSCEASGFKFKDYGMHWVRQAPGKGLEWLAVISHDGRNKNYADSVKGRLTISRDNSKNTLSFQMNSLRAEDTAVYYCVRDWSYAFDIWGQGTLVTVSS
VL: DIQMTQSPSFLSASVGDRVNITCRASQDISRRLAWYQQKPGKAPKLLIYGAASLQSAVASRFSGSGSGTEFTLTISSLQPEDFANYYCQQIYTTPLTFGGGTKVEIK

average AF-647 fluorescence (FL4-H) [22]: 622000
B4: 04-0562-h10scfv, single chain Fv of 04-0562-h10 DLK1 antibody, with C-terminal (His)6 tag (scFv)
scFv: DIVMTQSPLSLPVTPGEPASISCRSSQSLVHINGNTYLHWYLQKPGQSPQLLIYKVSNRFSGVPDRFSGSGSGTDFTLKISRVEAEDVGVYYCSQTTHVPWTFGQGTKLEIKGGGGSGGGGSGGGGSQVQLQESGPGLVKPSETLSLTCTVSGFSLTSYGVSWVRQPPGKGLEWIGVIWGDGSTSYNPSLKSRVTISKDTSKNQVSLKLSSVTAADTAVYYCAKPDGPLGQGTLVTVSSHHHHHH

average AF-647 fluorescence (FL4-H) [23]: 1.43e+06
B5: 04-0561-F1scfv, single chain Fv of 04-0561-F1 DLK1 antibody, with C-terminal (His)6 tag (scFv)
scFv: DIVMTQSPDSLAVSLGERVTMNCKSSQSLLQSSNQKNYLAWYQQKPGQPPKLLVYFASTRESGVPDRFSGSGSGTDFTLTISSVQAEDVAVYYCQQHYSIPLTFGQGTKLEIKGGGGSGGGGSGGGGSQVQLQESGPGLVKPSETLSLTCTVSGFSLSIYSVHWVRQPPGKGLEWIGLIWGGGSTDYNPSLKSRVTISKDTSKNQVSLKLSSVTAADTAVYYCARKEGNYLWFAYWGQGTLVTVSSHHHHHH
